Experiments:
[1] = tested on: HUVEC; test: Transport of paclitaxel across EC monolayers on transwell (HUVEC); type: cell-based, human; conditions: cell type not specified
Description: A series of experiments were performed to evaluate binding and transport of paclitaxel by human umbilical vein endothelial cells (HUVEC) and human lung microvessel endothelial cells (HLMVEC) for ABX and TAX. Fluorescent paclitaxel (FP) was used as a probe and fluorescent ABX and TAX were formulated with FP to probe the binding and transport of paclitaxel across EC monolayers grown on a transwell apparatus.

[2] = tested on: Colon Cancer (HT29); test: Colon cancer xenograft, SPARC / Avastin / Abraxane; type: in vivo, athymic nude mice; conditions: for tumor growth, single agent therapy versus saline control / tumor growth, addition to Abraxane compared to Abraxane alone: colon cancer cells
Description: (§1) Human breast cancer (FIGS. 7 and 8) and colon cancer cells (FIGS. 9 and 10) were grown in athymic nude mice as xenografts as in EXAMPLES 12 and 13. There were 5 mice in each treatment group. Tumors were treated when they reached 200 mm^3. […] Both wild type (“BIO1”) and Q3 mutant SPARC (“BIO2”) were evaluated. The animals were monitored for survival and xenograft growth as measures of efficacy and body weight change as a measure of toxicity.

[3] = tested on: Breast Cancer (MDA-MB-231); test: Breast cancer xenograft, SPARC / Avastin / Abraxane; type: in vivo, athymic nude mice; conditions: for tumor growth, addition to Abraxane compared to the other arms: breast cancer cells
Description: as §1

[4] = tested on: HT29 colon cancer xenograft; test: s.c. human HT29 colon cancer xenograft model, 5-FU with BIO1; type: in vivo, nude mice
Description: To further explore the chemotherapy sensitizing activity of SPARC, the athymic mouse tumor xenograft system was used to assess the sensitization of HT 29 human colocancer cells to 5-flurouracil (“5-FU”).
The cancer cells were implanted subcutaneously bilaterally in athymic mice. The mice were treated with saline or 25 mg/kg of 5-FU (see Table 4). Those animals that received SPARC were treated with wild type polypeptide (SEQ ID NO:1) at a dose of 4 mg/kg, 6 mg/kg or 8 mg/kg (see Table 4). The animals were monitored for survival and xenograft growth as measures of efficacy and body weight change as a measure of toxicity.

[5] = tested on: HUVEC; test: In vitro angiogenesis assay (TSC CellWorks Angiokit); type: cell-based, human; conditions: 12 days in culture
Description: In this system, human umbilical vein endothelial cells (“HUVEC”) are co-cultured with other human cells (fibroblast) in collagen matrix. HUVEC cells initially form small islands within the culture matrix. HUVEC differentiate, proliferate and enter migratory phase during which they move through the matrix and form threadlike tubule structures (9-11 days). These gradually join up and form a network which resemble the capillary bed.
HUVEC cells grown in a three dimensional matrix were treated with various concentration of wild type SPARC polypeptide (SEQ ID NO: 1) or the Q3 mutant SPARC polypeptide (SEQ ID NO: 3). Capillary microtubules were visualized using immunostaining for CD31 after 12 days in culture. FIG. 6 depicts SPARC's concentration dependent effect on neoangiogensis showing characteristic examples of the capillary microtubular density in the absence of SPARC (0 μg/ml), wild type or Q3 SPARC at 10 μg/ml, and wild type or Q3 SPARC at 100 μg/ml.

CCN1C(=O)C=CC1=O [NEM]
effect on transport of paclitaxel from ABX across endothelial monolayers [1]: inhibited

beta-methyl cyclodextrin [BMC]
effect on transport of paclitaxel from ABX across endothelial monolayers [1]: inhibited

Avastin: angiogenesis inhibitor [reference compound]
Tumor growth inhibition (TGI) relative to Abraxane alone ([2]; HT29, SPARC 150 μg/kg 2×/week, Avastin 4 mg/kg twice per week, Abraxane 15 mg/kg every fourth day ×3): <0% | tumor growth, single agent therapy versus saline control [2]: no better than the saline control treatments | Tumor growth inhibition (TGI) relative to Abraxane alone ([3]; MDA-MB-231, SPARC 150 μg/kg 2×/week, Avastin 4 mg/kg twice per week, Abraxane 15 mg/kg every fourth day ×3): 16%

O=c1[nH]cc(F)c(=O)[nH]1 [5-FU, 5-flurouracil]
% BWLmax ([4]; 5-FU 25 mg/kg IP): −5.8% | TGI (%) ([4]; 5-FU 25 mg/kg IP, post-treatment day 25): 79.8%

B1: BIO2: Q3 mutant SPARC (SEQ ID NO: 3), deletion of the third glutamine in mature human SPARC (protein, listed as Homo sapiens)
chain: APQEALPDETEVVEETVAEVTEVSVGANPVQVEVGEFDDGAEETEEEVVAENPCQNHHCKHGKVCELDENNTPMCVCQDPTSCPAPIGEFEKVCSNDNKTFDSSCHFFATKCTLEGTKKGHKLHLDYIGPCKYIPPCLDSELTEFPLRMRDWLKNVLVTLYERDEDNNLLTEKQKLRVKKIHENEKRLEAGDHPVELLARDFEKNYNMYIFPVHWQFGQLDQHPIDGYLSHTELAPLRAPLIPMEHCTTRFFETCDLDNDKYIALDEWAGCFGIKQKDIDKDLVI
tumor growth, addition to Abraxane compared to Abraxane alone [2]: fails to slow tumor growth beyond that achieved with Abraxane® | tumor growth, addition to Abraxane compared to the other arms [3]: similar, though blunted, results

B2: BIO1: wild type SPARC polypeptide (SEQ ID NO: 1) (protein, listed as Homo sapiens)
chain: APQQEALPDETEVVEETVAEVTEVSVGANPVQVEVGEFDDGAEETEEEVVAENPCQNHHCKHGKVCELDENNTPMCVCQDPTSCPAPIGEFEKVCSNDNKTFDSSCHFFATKCTLEGTKKGHKLHLDYIGPCKYIPPCLDSELTEFPLRMRDWLKNVLVTLYERDEDNNLLTEKQKLRVKKIHENEKRLEAGDHPVELLARDFEKNYNMYIFPVHWQFGQLDQHPIDGYLSHTELAPLRAPLIPMEHCTTRFFETCDLDNDKYIALDEWAGCFGIKQKDIDKDLVI
sensitization of the cancer cells to 5-FU ([4]; any of the SPARC concentrations used (4, 6, 8 mg/kg)): failed to sensitize

B3: SPARC: Secreted Protein, Acidic, Rich in Cysteines, also known as osteonectin; wild type or Q3 not told apart at the place (protein)
chain: APQQEALPDETEVVEETVAEVTEVSVGANPVQVEVGEFDDGAEETEEEVVAENPCQNHHCKHGKVCELDENNTPMCVCQDPTSCPAPIGEFEKVCSNDNKTFDSSCHFFATKCTLEGTKKGHKLHLDYIGPCKYIPPCLDSELTEFPLRMRDWLKNVLVTLYERDEDNNLLTEKQKLRVKKIHENEKRLEAGDHPVELLARDFEKNYNMYIFPVHWQFGQLDQHPIDGYLSHTELAPLRAPLIPMEHCTTRFFETCDLDNDKYIALDEWAGCFGIKQKDIDKDLVI
tumor growth, addition to Abraxane compared to Abraxane alone [2]: further decreases in tumor growth | tumor growth, single agent therapy versus saline control [2]: no better than the saline control treatments | tumor growth, addition to Abraxane compared to the other arms [3]: marked decreases in tumor growth | angiogenic activity (capillary microtubule density, CD31) ([5]; 10 μg/ml): proangiogenic | angiogenic activity (capillary microtubule density, CD31) ([5]; 100 μg/ml): inhibits angiogenesis

Reference: patent US20080255035A1, “SPARC AND METHODS OF USE THEREOF” (Abraxis BioScience, Inc., priority 2007, published 2008)
